# B1: rFX/FXIa (Q-R/I) analog, P00742 41-179; P00742 183-488 (enzyme)
# light: ANSFLEEMKKGHLERECMEETCSYEEAREVFEDSDKTNEFWNKYKDGDQCETSPCQNQGKCKDGLGEYTCTCLEGFEGKNCELFTRKLCSLDNGDCDQFCHEEQNSVVCSCARGYTLADNGKACIPTGPYPCGKQTLER
# heavy: SVAQATSSSGEAPDSITWKPYDAADLDPTENPFDLLDFNQTQPEQSFNDFTRIVGGQECKDGECPWQALLINEENEGFCGGTILSEFYILTAAHCLYQAKRFKVRVGDRNTEQEEGGEAVHEVEVVIKHNRFTKETYDFDIAVLRLKTPITFRMNVAPACLPERDWAESTLMTQKTGIVSGFGRTHEKGRQSTRLKMLEVPYVDRNSCKLSSSFIITQNMFCAGYDTKQEDACQGDSGGPHVTRFKDTYFVTGIVSWGESCARKGKYGIYTKVTAFLKWIDRSMKTRGLPKAKSHAPEVITSSPLK
# B2: rFX/FXIa (Q-R/I) analog (protein)
# chain 1: ANSFLEEMKKGHLERECMEETCSYEEAREVFEDSDKTNEFWNKYKDGDQCETSPCQNQGKCKDGLGEYTCTCLEGFEGKNCELFTRKLCSLDNGDCDQFCHEEQNSVVCSCARGYTLADNGKACIPTGPYPCGKQTLER
# chain 2: SVAQATSSSGEAPDSITWKPYDAADLDPTENPFDLLDFNQTQPEQSFNDFTRIVGGQECKDGECPWQALLINEENEGFCGGTILSEFYILTAAHCLYQAKRFKVRVGDRNTEQEEGGEAVHEVEVVIKHNRFTKETYDFDIAVLRLKTPITFRMNVAPACLPERDWAESTLMTQKTGIVSGFGRTHEKGRQSTRLKMLEVPYVDRNSCKLSSSFIITQNMFCAGYDTKQEDACQGDSGGPHVTRFKDTYFVTGIVSWGESCARKGKYGIYTKVTAFLKWIDRSMKTRGLPKAKSHAPEVITSSPLK
# Key:
# [1] = target: purified plasma factor IX (Stago) (UniProt P00740)
# UniProt P00740, sequence (P00740 whole entry, looked up): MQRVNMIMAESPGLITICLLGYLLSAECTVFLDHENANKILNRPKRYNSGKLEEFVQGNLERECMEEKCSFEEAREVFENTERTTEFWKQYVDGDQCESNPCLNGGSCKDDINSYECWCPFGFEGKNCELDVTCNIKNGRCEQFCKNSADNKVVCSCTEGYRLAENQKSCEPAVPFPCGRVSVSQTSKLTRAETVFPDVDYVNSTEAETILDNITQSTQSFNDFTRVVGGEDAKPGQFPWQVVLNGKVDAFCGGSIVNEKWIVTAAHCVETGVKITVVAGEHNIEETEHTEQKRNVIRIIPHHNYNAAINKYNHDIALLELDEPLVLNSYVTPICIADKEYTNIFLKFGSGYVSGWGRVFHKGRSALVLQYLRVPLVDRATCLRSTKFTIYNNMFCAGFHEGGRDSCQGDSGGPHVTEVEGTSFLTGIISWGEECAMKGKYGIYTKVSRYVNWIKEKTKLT
# [2] = test system: recombinant factor X wild type (rFX)
# [3] = target: corresponding murine coagulation proteins; test: cell-based or functional assay
# [4] = target: corresponding murine coagulation proteins
molecule,measurement,setting,value
purified factor XIa,"cleavage / in vitro activation, Western blot",rFX/FXIa (Q-R/I) analog,"after an incubation time of 1 h at 37 °C in the presence of CaCl2, the reaction batch of FXIa, with rFX/FXIa (Q-R/I) as a substrate, shows protein bands of approximately 36 kD and 32 kD which resemble the activated alpha and beta forms (aHCa and bHCa) of the heavy chain of FX"
same,"cleavage / conversion into activated forms, Western blot",[1],The conversion of FIX into the activated forms (FIXa and FIXb)
same,"cleavage, Western blot (negative control)",[2],"compared to rFX in the absence of FXIa, no change for rFX is visible in the protein pattern after incubation with FXIa"
B1,"Coagulation Time in sec. (aPTT, FIX-def. mouse plasma + rfX/fXIa(Q-R/I))",[3],48.6 s
same,"Coagulation Time in sec. (aPTT, FVIII-def. mouse plasma + rfX/fXIa(Q-R/I))",[3],52.5 s
B2,"% Activity in mouse plasma (aPTT, FIX-def. plasma + rfX/fXIa(Q-R/I))",[4],166%
same,"% Activity in mouse plasma (aPTT, FVIII-def. plasma + rfX/fXIa(Q-R/I))",[4],97%
